Target: receptor for UNQ733 on the surface of lymphoma cell lines and B cells (unidentified) (human)
Assay: flow cytometry on purified human peripheral blood B cells, 48 h with anti-CD40 and rIL-4

fold increase of binding on B cells stimulated with anti-CD40 and IL-4 against resting B cells: 2 to 5 fold
Substance: His8-tagged UNQ733 polypeptide (ligand)
